# T1: biotinylated recombinant his-tagged MrkA, mixture of monomeric and oligomeric MrkA (Klebsiella pneumoniae, UniProt P12267 23-202, biotin-labeled (Pierce kit; sites not stated))
# T1 construct: also called biotinylated-MrkA; a mixture of monomeric and multimeric MrkA; not shown: his tag
# T1 chain: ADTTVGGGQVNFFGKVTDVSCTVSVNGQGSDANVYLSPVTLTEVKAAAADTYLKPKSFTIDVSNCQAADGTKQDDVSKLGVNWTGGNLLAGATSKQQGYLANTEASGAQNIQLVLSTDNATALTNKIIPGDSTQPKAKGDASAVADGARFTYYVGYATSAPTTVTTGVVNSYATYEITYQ
# T2: MrkA on the surface of live or whole K. pneumoniae bacteria (Klebsiella pneumoniae, UniProt P12267 23-202)
# T2 construct: Target of whole-bacteria ELISA, FACS and confocal assays; The strain is named under assay in each row; On bacteria MrkA is assembled into fimbriae (oligomeric); also called K. pneumoniae MrkA; type III fimbriae major subunit MrkA
# T2 chain: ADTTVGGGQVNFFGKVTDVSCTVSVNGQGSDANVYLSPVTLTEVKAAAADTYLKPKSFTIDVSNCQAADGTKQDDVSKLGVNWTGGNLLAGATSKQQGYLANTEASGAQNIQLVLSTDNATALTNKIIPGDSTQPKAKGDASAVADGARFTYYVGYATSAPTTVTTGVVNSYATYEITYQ
# T3: MrkA with a 40 amino acid N-terminal deletion (MrkA-N-dlt) (Klebsiella pneumoniae, UniProt P12267 41-202)
# T3 construct: Lysate of E. coli coated on the ELISA plate; not shown: His tag added at the C terminus
# T3 chain: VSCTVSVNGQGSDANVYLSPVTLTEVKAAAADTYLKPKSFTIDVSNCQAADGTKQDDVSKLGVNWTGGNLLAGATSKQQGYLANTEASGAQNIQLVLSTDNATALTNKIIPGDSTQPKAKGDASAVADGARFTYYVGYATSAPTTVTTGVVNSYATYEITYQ
# T4: MrkA with both the N and C terminal deletions (MrkA-N/C-dlt) (Klebsiella pneumoniae, UniProt P12267 41-170)
# T4 construct: Lysate of E. coli coated on the ELISA plate; not shown: His tag added at the C terminus
# T4 chain: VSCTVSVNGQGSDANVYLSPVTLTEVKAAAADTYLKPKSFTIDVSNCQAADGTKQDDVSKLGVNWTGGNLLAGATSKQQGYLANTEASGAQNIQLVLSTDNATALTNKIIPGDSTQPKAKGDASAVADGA
# T5: monomeric MrkA (purified, BLI) (Klebsiella pneumoniae, UniProt P12267 23-202)
# T5 construct: not shown: N terminal 6x his tag from pET28
# T5 chain: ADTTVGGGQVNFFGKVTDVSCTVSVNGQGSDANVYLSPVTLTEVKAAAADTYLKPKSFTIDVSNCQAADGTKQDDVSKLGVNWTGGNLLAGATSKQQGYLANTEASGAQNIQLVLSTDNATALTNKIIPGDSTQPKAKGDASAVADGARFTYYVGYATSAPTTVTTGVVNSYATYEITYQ
# Key:
# [1] = molecular target: T1, biotinylated recombinant his-tagged …; experiment: BLI (Octet), biotinylated MrkA on streptavidin sensors, IgG in solution, 1:1 fit
# Procedure: (§1) For affinity measurement, two different formats were used. The first used an IgG against a mixture of monomeric and oligomeric MrkA. The second used a Fab against a monomeric MrkA. A ForteBio Octet QK384 instrument was used to study kinetics of the anti-MrkA mAbs. All the assays were done at 200 μl/well in ForteBio 10× kinetic buffer at 30° C. […] Dissociation of the interaction was probed for 600 seconds. Any systematic baseline drift was corrected by subtracting the shift recorded for a sensor loaded with ligand but incubated without analyte. Octet Data Analysis software version 8.0 was used for curve fitting with the binding equations available for a 1:1 interaction model. Global analyses were done using nonlinear least squares fitting. Goodness of fit for the data were assessed by the generated residual plots, R2 and χ2 values.
# [2] = molecular target: T1, biotinylated recombinant his-tagged …; experiment: ELISA, biotinylated MrkA captured by streptavidin (title: anti-MrkA IgG binding to bio-MrkA)
# [3] = molecular target: T1, biotinylated recombinant his-tagged …; experiment: ELISA, MrkA protein coated directly onto the plate, not biotinylated (title: anti-MrkA IgG binding to MrkA)
# [4] = molecular target: T2, MrkA on the surface of live or whole K. …; experiment: whole cell ELISA on K. pneumoniae strain 29011 (title: Kp29011 ELISA)
# Procedure: Briefly, a single colony of K. pneumoniae was inoculated into 2xYT media until the culture reached log phase. Bacteria were coated onto 384-well plates (Nunc MaxiSorp) overnight at 4° C. […] After blocking with PBS supplemented with 4% BSA (PBS-B), the coated plates were incubated with anti-K. pneumoniae antibodies for 1 h. The plates were then washed with PBS-T (PBS+0.1% Tween 20) before HRP-conjugated secondary antibody was added for 1 h followed by washing and TMB (3, 3′, 5, 5′-Tetrametheylbenzidine) substrate addition. Color development was stopped by adding 0.1 N HCL, and the absorbance at 450 nm was measured by microplate reader (Molecular Devices). The data was plotted with Prism software.
# [5] = molecular target: T3, MrkA with a 40 amino acid N-terminal …; experiment: ELISA on plates coated directly with cleared lysate of E. coli expressing the His-tagged construct; y axis without a label
# [6] = molecular target: T4, MrkA with both the N and C terminal …; experiment: as above
# [7] = molecular target: T5, monomeric MrkA (purified, BLI); experiment: BLI (Octet), Fab against monomeric MrkA
# Procedure: as §1
Binder,Kd [1],koff [1],kon [1],EC50 (read off the curve) [2],EC50 (read off the curve) [3],EC50 (read off the curve) [4],binding result [5],binding result [6],Kd [7],koff [7],kon [7]
"anti-MrkA clone 4 (IgG1) (antibody, V domains shown, also called St2_C4; IgG clone 4) VH: QLQLQESGPGLVKPSGTLSLTCAVSGDSIDNANWWSWVRQTPGKGLEWIGEIYHSGTTYYNPSLKSRVTISIDNSKNQFSLALTSVTAADTAVYYCARDRDITSRGTFDVWGRGTMVTVSS VL: DIQMTQSPSTLSASIGDRVTITCRASEGIYHWLAWYQQKPGKAPKLLIYKASSLASGAPSRFSGSGSGTDFTLTISSLQPDDFATYYCQQYSNYPLTFGGGTKLEIK",3.61 nM,0.000146 s⁻¹,40600 M⁻¹ s⁻¹,~0.1 µg/mL,~0.01 µg/mL,–,–,–,–,–,–
"anti-MrkA clone 5 (IgG1) (antibody, V domains shown, also called St3_C5; IgG clone 5) VH: QVQLVQSGAEVKKPGASLKVSCKASGYTFTAYYMHWVRQAPGHGLEWMGWINPSSGGTNSAQKFQGRVTMTRDTSINTAYMELSRLTSDDTAVYYCARGTIGAAGNYWGQGTLVTVSS VL: QSVLTQPPSASGTPGQRVTISCSGSRPNIGGNTVNWYQQLPGAAPKLLIYSNSQRPSGVPDRFSGSKYGTSASLAISGLQSDDEADYYCAAWDDSLTGPVFGGGTKLTIL",3.54 nM,9.2e-05 s⁻¹,26000 M⁻¹ s⁻¹,~0.2 µg/mL,~0.01 µg/mL,–,–,–,–,–,–
"anti-MrkA clone 6 (IgG1) (antibody, V domains shown, also called St4_C6; IgG clone 6) VH: QVQLVQSGAEVRKPGASVTLSCRTSGYTFTSYAVHWVRQAPGQGLEWMGGVNGGNGNTRFSQKFQDRLMIVRDRSANTASMELRSLTSEDTAVYYCARADDCSGVGCHPWFDPWGQGTLVTVSS VL: SVILTQPPSVSVSPGQTANITCSGDKLGDKYTSWYLQKPGQSPVLLIFQDTKRPSDIPERFSGSNSGNTATLTISGTQAVDEADYYCQAWDSDSGTATFGGGTKLTVL",8.8 nM,0.0002 s⁻¹,22000 M⁻¹ s⁻¹,~0.01 µg/mL,~0.01 µg/mL,–,–,–,–,–,–
"Kp3 (antibody, IgG1, V domains shown, constant regions are not; also called anti-MrkA mAb Kp3; MAb Kp3) VH: QVQLQESGPGLVKPSETLSLTCTVSGGSMNSNSNTYYWGWIRQPPGKGLEWIGTIHSSGRTYYNPSLKSRVTISVDMSKNQFSLNLTSATAADTAVYYCARDLSGASLAPRRPFNYYYYNMDVWGRGTLVTVSS VL: not shown",0.15 nM,1.2e-05 s⁻¹,76000 M⁻¹ s⁻¹,~0.01 µg/mL,~0.01 µg/mL,~0.08 µg/mL,no binding,no binding,–,–,–
"Kp16 (antibody, V domains shown) VH: QVQLQQSGAEVKKPGASVKVSCKASGYALTTYYMHWVRQAPGQGLQWMGMINPSSGSTIYAQPFRGRVTLTRDTSSGTVFMDLSSLTSEDTAIYYCARGNYGSSFGYWGKGTMVTVSS VL: not shown",–,–,–,–,–,~0.08 µg/mL,–,–,–,–,–
"anti-MrkA clone 1 (IgG1) (antibody, V domains shown, also called St1_C1; IgG clone 1) VH: QVQLVQSGAEVRKPGASVTVFCRTSGYIFTSYAVHWVRQAPGQGLEWMGGINGGNGNTRISQRFQDRLMITRDRSANTASMELRSLTSEDTAIYYCARADDCSGVGCHPWFDPWGRGTLVTVSS VL: QSVLTQPPSVSVSPGHTASITCSGDKLGDKYVSWYQQKSGQSPVLVMYKDTKRPSGIPERFSGSNSGNTATLAISGTQAVDEADYFCQAWDRSIMIFGGGTKVTVL",3.25 nM,0.00017 s⁻¹,53000 M⁻¹ s⁻¹,~0.01 µg/mL,~0.01 µg/mL,–,–,–,–,–,–
"Clone 1 Fab (Fab, V domains shown, also called Clone 1 (Fab format)) VH: QVQLVQSGAEVRKPGASVTVFCRTSGYIFTSYAVHWVRQAPGQGLEWMGGINGGNGNTRISQRFQDRLMITRDRSANTASMELRSLTSEDTAIYYCARADDCSGVGCHPWFDPWGRGTLVTVSS VL: QSVLTQPPSVSVSPGHTASITCSGDKLGDKYVSWYQQKSGQSPVLVMYKDTKRPSGIPERFSGSNSGNTATLAISGTQAVDEADYFCQAWDRSIMIFGGGTKVTVL",–,–,–,–,–,–,–,–,2.76 nM,0.00034 s⁻¹,150000 M⁻¹ s⁻¹
"Clone 5 Fab (Fab, V domains shown, also called Clone 5 (Fab format)) VH: QVQLVQSGAEVKKPGASLKVSCKASGYTFTAYYMHWVRQAPGHGLEWMGWINPSSGGTNSAQKFQGRVTMTRDTSINTAYMELSRLTSDDTAVYYCARGTIGAAGNYWGQGTLVTVSS VL: QSVLTQPPSASGTPGQRVTISCSGSRPNIGGNTVNWYQQLPGAAPKLLIYSNSQRPSGVPDRFSGSKYGTSASLAISGLQSDDEADYYCAAWDDSLTGPVFGGGTKLTIL",–,–,–,–,–,–,–,–,1520 nM,0.0782 s⁻¹,50000 M⁻¹ s⁻¹

# — patent US20190062411A1 (AstraZeneca / MedImmune, published 2019)
